Positions count from the first letter of the chain named.
B1: SR12_f3 (VHH)
VHH: QVQLVVSGGGLVQAGDSLRLSCAASGAIVHVFAMGWFRQAPGKEREFVASINLDNDATNYADSVKGRFTISRDDARNTVYLQMNSLKPEDTAVYYCNATIFMDSDLGDYWGRGTQVTVSS
B2: SR12_t6 (VHH)
VHH: B1 VHH with A57V, M102T, D105G
B3: SR1_t2 (VHH)
VHH: EVRLVESGGGLVLAGDSLRLSCAASGKTGRSVIMGWFRQAPDKEREFVATITRGDDTTNYADSVKGRFTISRDDARNTVYLQMNSLKPEDTAVYYCAAVYFVNDCIVDYWGQGTQVTVSS
B4: SR2_c3 (VHH)
VHH: EVQLVESGGGLVQAGDSLRLSCAASGAFSSNVFMGWFRQAPGKEREFVASITPHHAVTDYADSVRGRFSISADSAKNTVYLQMNSLKPEDTAVYYCAAAIYRNATVLDYWGQGTQVTVSS
B5: SR2_c4 (VHH)
VHH: B4 VHH with R102C
B6: SR2_t5 (VHH)
VHH: B4 VHH with E1Q, S74T
B7: SR6_f3 (VHH)
VHH: QVQLVVSGGGLVQAGDSLRLSCAASGDCHVLWRMGWFRQAPGKEREFVAAISLDGLFTNYADSVRGRFSISADSAENTVYLQMNSLKPEDTAVYYCAAMPFFDYWGQGTQVTVSS
B8: GST-tagged SR6v15 (VHH)
VHH: B7 VHH with Q1E, V6E, C28S, H29Y, V30I, L56Q, E76K, N77Y, M99L, F102L
notes: not shown: GST, C-terminal, kept
B9: SR6_t9 (VHH)
VHH: B7 VHH with A23T, R45L, L56Q, T58A, M99L, F102L
B10: SR6_t5 (VHH)
VHH: B7 VHH with L56Q, E76K, M99L, F102L
B11: SR6_t6 (VHH)
VHH: B7 VHH with L56Q, M99L, F102L
B12: SR4_c1 (VHH)
VHH: EVQLVESGGGLVQAGDSLRLSCAASGFQLSCYCMGWFRQAPGKEREFVASITQHAFRTYYADSVKGRFTISRDDARNTVYLQMNSLKPEDTAVYYCAAAETPNILVHENYWGQGTQVTVSS
B13: SR4_t9 (VHH)
VHH: B12 VHH with E1K, E6V, G9R, G10V, S25T, M34V, R45L, N109S
B14: SR4_t4 (VHH)
VHH: B12 VHH with E6V, G9R, M34V
B15: SR4_f3 (VHH)
VHH: B12 VHH with E6V, G9R, M34V, H107Y
B16: SR4_t6 (VHH)
VHH: B12 VHH with E6V, G9R, G10V, M34V, N109S
B17: SR4_t13 (VHH)
VHH: KVQLVVTGRVLVQAGDSLRLSCVATGFQLSCYCVGWFRQAPGKELEFVASITQHAFRTYYADSVKGRFTISRDDAQNTVYLQMNSLEPEDTAVYYCAAAETPNILVHESYWGQGTQVTVSS

Assays:
[1] = biological target: SARS-CoV-2 spike RBD with C-terminal 3xFlag tag and N-terminal signal peptide of the spike (RBD-3xFlag) (SARS-CoV-2, Wuhan-Hu-1 type (wild type), UniProt P0DTC2)
[2] = biological target: recombinant RBD (ThermoFisher, RP-87678) (SARS-CoV-2, Wuhan-Hu-1 assumed, UniProt P0DTC2); assay: BLI; settings: one partner purified

Row | Binder | binding result [1] | Kd [2] [nM]
1 | B1 | binds | 
2 | B2 | binds | 
3 | B3 | binds | 
4 | B4 | binds | 
5 | B5 | binds | 
6 | B6 | binds | 
7 | B7 | binds | 
8 | B8 |  | 2.18
9 | B9 | binds | 
10 | B10 | binds | 
11 | B11 | binds | 
12 | B12 | binds | 
13 | B13 | binds | 
14 | B14 | binds | 
15 | B15 | binds | 
16 | B16 | binds | 
17 | B17 | binds | 
